B1: IL-10: anti-inflammatory cytokine (protein, UniProt P22301 19-178, looked up)
Interleukin-10: SPGQGTQSENSCTHFPGNLPNMLRDLRDAFSRVKTFFQMKDQLDNLLLKESLLEDFKGYLGCQALSEMIQFYLEEVMPQAENQDPDIKAHVNSLGENLKTLRLRLRRCHRFLPCENKSKAVEQVKNAFNKLQEKGIYKAMSEFDIFINYIEAYMTMKIRN
B2: IL-12: pro-inflammatory cytokine (protein, UniProt P29459 23-219; P29460 23-328, looked up)
Interleukin-12 subunit alpha: RNLPVATPDPGMFPCLHHSQNLLRAVSNMLQKARQTLEFYPCTSEEIDHEDITKDKTSTVEACLPLELTKNESCLNSRETSFITNGSCLASRKTSFMMALCLSSIYEDLKMYQVEFKTMNAKLLMDPKRQIFLDQNMLAVIDELMQALNFNSETVPQKSSLEEPDFYKTKIKLCILLHAFRIRAVTIDRVMSYLNAS
Interleukin-12 subunit beta: IWELKKDVYVVELDWYPDAPGEMVVLTCDTPEEDGITWTLDQSSEVLGSGKTLTIQVKEFGDAGQYTCHKGGEVLSHSLLLLHKKEDGIWSTDILKDQKEPKNKTFLRCEAKNYSGRFTCWWLTTISTDLTFSVKSSRGSSDPQGVTCGAATLSAERVRGDNKEYEYSVECQEDSACPAAEESLPIEVMVDAVHKLKYENYTSSFFIRDIIKPDPPKNLQLKPLKNSRQVEVSWEYPDTWSTPHSYFSLTFCVQVQGKSKREKKDRVFTDKTSATVICRKNASISVRAQDRYYSSSWSEWASVPCS

What was measured:
[1] = tested on: CD8ab T-cells; test: induction of CD8αα on in vitro activated CD8ab T-cells, measured with TL tetramer; type: cell-based, mice; conditions: for generation of CD8αα effector memory precursor cells: WT, IL10−/− or IL21−/− CD8ab T-cells, anti-CD3/CD28, with or without IL12
Protocol: CD8ab T-cells isolated from wild type mice (WT) or IL10 deficient mice (IL10−/−), or IL21 deficient mice (IL21−/−) were activated in vitro with anti-CD3/CD28 and with or without IL12. Induction of CD8αα was measured using TL tetramer.

[2] = tested on: B16 tumor cells; test: MHC class II expression on B16 tumor cells; type: cell-based, mouse
From the text: As a result, most transferred CD4 CTL died in vivo. In addition, activated anti-tumor specific CD8 CTL kill the tumor cells in response to detecting their Ag on the tumor cells presented by MHC class I (OVA Ag on the B16-OVA). In addition they also secrete IFNg which in turn upregulate MHC class II expression on the tumor cells (right panel). Anti-tumor reactive CD8 T-cells become restrained (induction of PD-1) or undergo TL- or activation-induced cell death. Therefore, a combination of anti-tumor CD8 T-cells (or NK T-cells or DN T-cells) and anti-tumor CD4 CTL which can kill tumor cells once MHC class II is induced, can be a powerful anti-tumor immunotherapy.

Molecule | generation of CD8αβ TEM/RM [1] | generation of CD8αα effector memory precursor cells [1] | MHC class II (I-A^b) expression on tumor cells [2]
IL-21: anti-inflammatory cytokine | counteract | inhibit | 
IFNg: soluble cytokine, the only member of the type II class of interferons |  |  | induce MHC class II (I-A^b)
B1 | counteract | inhibit | 
B2 | promotes | promotes | 

— patent US11951128B2, “Compositions and methods for the isolation and/or generation of specific CD4+ and CD8+ T-cell subsets” (LA JOLLA INSTITUTE FOR ALLERGY AND IMMUNOLOGY, priority 2017, dated 2024)
